The values that follow are results of earlier work, collected in paper PMC2812830.

The data set has as its target LAT pY191 phosphopeptide pY191 peptide (Homo sapiens) (UniProt O43561). Put plainly: ITC.

Take Grb2 (from UniProt P62993): the dissociation constant (Kd) – broadly, a measure of binding affinity in units of concentration – was 0.286 µM.
